Test results from the DeepSol protein solubility set.

Assay: soluble on expression in E. coli; label from the status in PepcDB or PDB records

Sequence	soluble on expression in E. coli
MSFLISFDKSKKHPAHLQLANNLKIALALEYASKNLKPEVDNDNAAMELRNTKEPFLLFDANAILRYVMDDFEGQTSDKYQFALASLQNLLYHKELPQQHVEVLTNKAIENYLVELKEPLTTTDLILFANVYALNSSLVHSKFPELPSKVHNAVALAKKHVPRDSSSFKNIGAVKIQADLTVKPKDSEILPKPNERNILITSALPYVNNVPHLGNIIGSVLSADIFARYCKGRNYNALFICGTDEYGTATETKALEEGVTPRQLCDKYHKIHSDVYKWFQIGFDYFGRTTTDKQTEIAQHIFTKLNSNGYLEEQSMKQLYCPVHNSYLADRYVEGECPKCHYDDARGDQCDKCGALLDPFELINPRCKLDDASPEPKYSDHIFLSLDKLESQISEWVEKASEEGNWSKNSKTITQSWLKDGLKPRCITRDLVWGTPVPLEKYKDKVLYVWFDATIGYVSITSNYTKEWKQWWNNPEHVSLYQFMGKDNVPFHTVVFPGSQLGTEENWTMLHHLNTTEYLQYENGKFSKSRGVGVFGNNAQDSGISPSVWRYYLASVRPESSDSHFSWDDFVARNNSELLANLGNFVNRLIKFVNAKYNGVVPKFDPKKVSNYDGLVKDINEILSNYVKEMELGHERRGLEIAMSLSARGNQFLQENKLDNTLFSQSPEKSDAVVAVGLNIIYAVSSIITPYMPEIGEKINKMLNAPALKIDDRFHLAILEGHNINKAEYLFQRIDEKKIDEWRAKYGGQQV	not soluble
TRPIFAIEQLSPYQNVWTIKARVSYKGEIKTWHNQRGDGKLFNVNFLDTSGEIRATAFNDFATKFNEILQEGKVYYVSKAKLQPAKPQFTNLTHPYELNLDRDTVIEECFDESN	soluble
MQQYIGIDVGGTHVKYGVINSDGEELTHHQFDTPEDASTFTRKWQDVVARCQQDYDIAAIGVSFPGHINPHNGHAAKAGALAYLDDVNLMELFSGLTDLPLVVENDANCAALGEMWRGAGQHYENMVCITIGTGIGGGIIVGRELYRGAHFHAGEFGVMPVGNNGESMHKIASTSGLMASCRQALALPAEEMPPADVIFERMATDVHLREAVNDWARYLSRGVYSVISMFDPGVVLIGGGISEQEKLYPLLTRHLETFEMWEALQVPIQPCQLGNQAGRLGAVWLAQQKLDRG	not soluble
MGSDKIHHHHHHMSTSAIDPVSFSLYAKDFTRFAQELGASFERYGFAVLSDYDLDQARIDAAVDSAKAFFALPVETKKQYAGVKGGARGYIPFGVETAKGADHYDLKEFWHMGRDLPPGHRFRAHMADNVWPAEIPAFKHDVSWLYNSLDGMGGKVLEAIATYLKLERDFFKPTVQDGNSVLRLLHYPPIPKDATGVRAGAHGDINTITLLLGAEEGGLEVLDRDGQWLPINPPPGCLVINIGDMLERLTNNVLPSTVHRVVNPPPERRGVPRYSTPFFLHFASDYEIKTLQNCVTAENPDRYPESITADEFLQQRLREIKLA	not soluble
MGSDKIHHHHHHMIQHKPDLIFLDINLPDINGIDFAEQVQSILPEVHIVFITAYDEYAVKAFELNAIDYVMKPVQRDRLNRTINRITDRKTVEPLRSQTDSKIISCFQTLHFQKGSEIGKAEPIDVNWRTAKARELFAYLVQHRKQPVRKDVLLEFFWPESDVKKGYAQLYSAIYQIRKMLDSLQMNSTVVSFDKSYKLHLNGTKLDVEEWERELRQLPNITEDTLPSYRRLLETYKGDYLAEEAYLWAENERERLRTLYHSTFNKVTTYYLECGYYTDAITLCQRVQTLHPLMETSYFLLMQVYAKMGDNHSVKSQYEKLNHVLEAEYGIHTSDSIENWYNEWKKQLQ	not soluble
MRTHTGKIPDHFVPRISMTEEQRRVVFMLNSLLLDYPEEGFVDKLNAVEAQLDVLPLPVAAHVVEFLDAARVAGLRAMQEAYVETFDQRRRCSLFLTYYAVGDTRQRGTAILTFRQTLQQLGFESERDELPDHLCVVLEAAALADSSLFDAATQVLSAHRDGIEVLRAALDNLDSPYRYLIMSLCQALPEIDEETANSYMELIRSGPPAEMVGIGTPLPFPTSQPDIH	not soluble
GMSESNRQRATGLVQAYYEAFNRGDWDAMLAFLAEDVAHDLNQGPREIGRAAFASFLQRMNDSYREQLRDIVVTANDEGTRVGAEYVVHGVYHTTDEGLPDANGQTYVLPGGAFFDVRDGQITRVTNYYNLQEWIAQVSR	soluble
MNANIMLNEDITPIGSDYDTVRGVIELLTLDYREQPSLEAIAARLGQSPTQLQKTFTRWAGLSPKAFLQAVTLDHAKRLLREEDLPLLETSIEVGMSGPGRLHDLFVTHEAMSPGEWKAKGGGLTIRYGFHASPFGLALVMITDRGLAGCAFADPGDERACFEDMAGRWPNADYVEDREATAPYAARIFEPAMWTADKPLRVVLLGTDFQVRVWKSLLKIPMGRAVTYSNIACDIGQPTASRAVGAAVGANPVSFVVPCHRAVGKSGALTGYHWGLTRKRAMLGWETGKALEHHHHHH	not soluble
MGSDKIHHHHHHMANLTFYPIGTAGEKWGETEKAAWLASTQIKRSYQDDVVTPLKAMEAKLSALGLGIVQYGALSINAERYPLFAVKSQQFDPQKPTVLVTGGVHGYETSGVHGALAFLTNEAANYVQQVNLVVAVCVSPWGYETINRWNPKAIDPNRSFYANSPAEESAALMALVASVTSVEQGFDVHVDLHETTDSDELEFRPALCARDGIEYDKGTIPDGFYAVGDTEHSMDAFQKAIIDGVSKVTHIAPADEKGEIIGSTVVQHGVINYPLKSLGLCSSVTGCIYNTTTEVYPDSPTATPAECNLAQVAAITSAIDYVLAQR	not soluble
MTTVTVTTEVPSSGKTEDGHVFCDSSSAHIIEETEYVRQMRTTLEKIRNHMFKEKEGCGNARHKLDAEGSGNIQNGSDSTTDPTCLDLLMENMRRKDQQLLEMNRENEVLQIKLEASREAGAAALRNVAQRLFDNYQTQAGDLEKKHEGRKHLLQVNNLEKEQALKGSAESLNLLSEKLEEKHGQIVGLENRVQRMENNKELKTRVAHWTETPRTLVSKAVSTSELKTEGASPYLMLIRLRK	not soluble
MGSDKIHHHHHHMIPLFDLTRQYERIRGEILNAIDKLISSGNVILGENVRRLEEEIASFTGVKHGVGVASGSDALLIALRAMGVEKGDTVVTTPYTFFATASAPYRLGARVIFVDVDESTFNMDLNQLEHVLKKEKVKAIIPVHLFGRTVDLEALSFLREKYGVMILEDCAQSMGSEWKFSSGEIRKSGSVGDAAIFSFFPTKNLGTYGDGGMIVTNSDEIAEESRILRVHGARKKYFHEKVGYNSRLDEIHAAILRVKLRYLERWTEERTRVARTYQKLFEEKKLPVVYPRVEEKGFRYHVFHQYVVLFENEEVRERVREGLKERGIQTAIYYPLPLHLQKCFRDLGYQEGDFPVAESLSKRSLALPMFPELRDDEIKEVVDTIALFL	not soluble
SLSTADALDDENTFKILVATDIHLGFMEKDAVRGNDTFVTLDEILRLAQENEVDFILLGGDLFHENKPSRKTLHTCLELLRKYCMGDRPVQFEILSDQSVNFGFSKFPWVNYQDGNLNISIPVFSIHGNHDDPTGADALCALDILSCAGFVNHFGRSMSVEKIDISPVLLQKGSTKIALYGLGSIPDERLYRMFVNKKVTMLRPKEDENSWFNLFVIHQNRSKHGSTNFIPEQFLDDFIDLVIWGHEHECKIAPTKNEQQLFYISQPGSSVVTSLSPGEAVKKHVGLLRIKGRKMNMHKIPLHTVRQFFMEDIVLANHPDIFNPDNPKVTQAIQSFCLEKIEEMLENAERERLGNSHQPEKPLVRLRVDYSGGFEPFSVLRFSQKFVDRVANPKDIIHFFRHREQKEKTGEEINFGKLITKPSEGTTLRVEDLVKQYFQTAEKNVQLSLLTERGMGEAVQEFVDKEEKDAIEELVKYQLEKTQRFLKERHIDALEDKIDEEVRRFRETRQKNTNEEDDEVREAMTRARALR	soluble
MSALRSVLLLCWRDIGHPQGGGSEAYLQRIGAQLAASGIAVTLRTARYPGAPRHELVDGVRISRAGGRYSVYLWALLAMAAARCGLGPLRRVRPDVVVDTQNGWPFVARLLYGRRSLVLVHHCHREQWPVAGRMMGRLGWYVESMLSPRLHRRNQYVTVSLPSARDLIALGVDSERIAVVRNGLDEAPSPTLSGPRAPTPRVVVLSRLVPHKQIEDALAAVAELQPRIPGLHLDIVGGGWWRQRLVDHVHRLDIADAVTFHGHVDDVTKHHVLQSSWVHLLPSRKEGWGLAVIEAAQHGVPTIGYRSSGGLADSIVDGVTGILVDDRAELVAWLEQLLSDSVLRDQLGAKAQARSGEFSWRQSAEALRSVLEAVQASRFVSGVV	soluble
ENAIIGVNDHTLVTESDGRRWVTREPAIVYFHKKYWFNIIAMIRDNGTSYYCNMASPYYLDEEALKYIDYDLDVKIFTDGEKRLLDVEEYERHKRKMNYS	not soluble
MKRKKPTIHDVAAKAGVGLGTVSRVLNDHPAVRHETRARVLRAMEELGYAPNPHARRIAGGRSYTVSVLLPFVATEFYRRLVEGIEGVLLEQRYDLALFPILSLARLKRYLENTTLAYLTDGLILASYDLTERFEEGRLPTERPVVLVDAQNPRYDSVYLDNRLGGRLAGAYLARFPGPIFAIAVEEEPDRAFRRTVFAERMAGFQEALKEAGRPFSPDRLYITRHSQEGGRLALRHFLEKASPPLNVFAGADQV	soluble
MGSDKIHHHHHHMNSSQKRVLHVLSGMNRGGAETMVMNLYRKMDKSKVQFDFLTYRNDPCAYDEEILSLGGRLFYVPSIGQSNPLTFVRNVRNAIKENGPFSAVHAHTDFQTGFIALAARLAGVPVRVCHSHNTSWKTGFNWKDRLQLLVFRRLILANATALCACGEDAGRFLFGQSNMERERVHLLPNGIDLELFAPNGQAADEEKAARGIAADRLIIGHVARFHEVKNHAFLLKLAAHLKERGIRFQLVLAGDGPLCGEIEEEARQQNLLSDVLFLGTEERIHELMRTFDVFVMPSLYEGLPVVLVEAQASGLPCIISDSITEKVDAGLGLVTRLSLSEPISVWAETIARAAAAGRPKREFIKETLAQLGYDAQQNVGALLNVYNISTEKDHNR	not soluble
MLSEERVKELLKKLKDLKILVVGDVILDTYLYGNVERISPEAPVPVLEVEGEEFRLGGAGNVAKNLSSLGVETYLCGVVGKDEAGKRLRELIEGNSIRSFLIEDERPTTKKTRVVSRNQQLLRIDWEDRSYISGKALEKILDVIKNLQVDGIIVSDYAKGVITEEVIKTIREKGVFYSVDPRPKHRELYRKAYLMTPNEKELREMSKFEGSVEELGKKLKEELELETLIVTRGEKGMSLFTEKGVKHFPARARKVYDVTGAGDTVIASITAFKLAGATWEECCELGNVCGGIVVGEFGTATVTPEKLLKAVKLNS	not soluble
QRKGVLIILDGLGDRPIKELGGKTPLEYANTPTMDYLAKIGILGQQDPIKPGQPAGSDTAHLSIFGYDPYKSYRGRGYFEALGVGLELDEDDLAFRVNFATLENGVITDRRAGRISTEEAHELAKAIQENVDIPVDFIFKGATGHRAVLVLKGMAEGYKVGENDPHEAGKPPHPFTWEDEASKKVAEILEEFVKKAHEVLDKHPINEKRRKEGKPVANYLLIRGAGTYPNIPMKFTEQWKVKAAAVVAVALVKGVAKAIGFDVYTPKGATGEYNTDEMAKARKAVELLKDYDFVFIHFKPTDAAGHDNNPKLKAELIERADRMIKYIVDHVDLEDVVIAITGDHSTPCEVMNHSGDPVPLLIAGGGVRADYTEKFGEREAMRGGLGRIRGHDIVPIMMDLMN	not soluble
KSCCSCCPAGCEKCAKDCVCKGEEGAKAEAEKCSCCQ	soluble
MSLAIQNPYTAYQQNSVNTATPGELTLMLYNGCLKFIRLAAQAIENDDMERKNENLIKAQNIIQELNFTLNRNIELSASMGAMYDYMYRRLVQANIKNDTGMLAEVEGYVTDFRDAWKQAIQSERKDRHGSGGIAEGGSHHHHHH	soluble
